# Key:
# [1] = target: T1, Recombinant human CD4 (R&D Systems, Cat. 10327-CD) (human, UniProt P01730 26-390, limits assumed); test: BLI (Octet Red 384), non-clonal supernatant captured on AMC sensors, 100 nM human CD4
# T1 construct: Bought protein; also called huCD4
# [2] = target: T1, Recombinant human CD4 (R&D Systems, …); test: BLI (Octet Red 384), non-clonal supernatant captured on AMC sensors, 100 nM human CD4, 1:1 local fit;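 further: hybridoma antibodies from supernatants, one CD4 concentration giving single-point kinetics per supernatant, with curves fitted over both association and dissociation phases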
# [3] = target: T2, human CD4 on cells (SKW3 cells; human PBMCs) (human, UniProt P01730 26-458); test: FACS confirmation, supernatant on human PBMCs;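 further: flow cytometry with hybridoma supernatants incubated on human PBMCs for 30 min at 4 °C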
# T2 construct: whole, on cells; SKW3 CD4 knockout cells served as the negative cell line in the primary screen; also called hCD4; huCD4
# [4] = target: T2, human CD4 on cells (SKW3 cells; human …); test: FACS confirmation, supernatant on SKW3 cells; background gMFI 2500
# [5] = target: T2, human CD4 on cells (SKW3 cells; human …); test: FACS confirmation, supernatant on SKW3 cells; background gMFI 3300
# [6] = target: T2, human CD4 on cells (SKW3 cells; human …); test: FACS primary screen, hybridoma supernatant, SKW3 vs SKW3 CD4 KO cells;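 further: flow cytometry on mixed SKW3 and dye-labeled SKW3 CD4 knockout cells after 30 min at 4 °C with supernatant, ratio of binding signal on parental versus knockout cells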
# [7] = target: T2, human CD4 on cells (SKW3 cells; human …); test: FACS binning on SKW3 cells; competitor OKT4a; background 5000, max binding 35000
# [8] = target: T2, human CD4 on cells (SKW3 cells; human …); test: FACS binning on SKW3 cells; competitor OKT4-A488; background 2163, max binding 8200
# [9] = target: T2, human CD4 on cells (SKW3 cells; human …); test: FACS binning on SKW3 cells; competitor RPA-T4-PE-Dazzle 594; background 783, max binding 15000
# huCD4-HIS = target: T3, huCD4-HIS (human, UniProt P01730 26-390, limits assumed); test: ELISA binning; competitor ibalizumab; 100 ng/mL huCD4-HIS, anti-HIS HRP; background 45, max binding 3000000
# T3 construct: the ELISA is not described in the text of this stretch; also called human CD4-HIS
# [10] = target: T4, human CD4 on cells (SKW3 cells; human PBMCs) (human, UniProt P01730 26-458); test: FACS confirmation, supernatant on human PBMCs, anti-mFc 647, CD4+ gate
# T4 construct: whole, on cells; SKW3 CD4 knockout cells served as the negative cell line for the WT vs KO ratios; also called hCD4; SKW3 WT
# [11] = target: T4, human CD4 on cells (SKW3 cells; human …); test: FACS confirmation, supernatant on SKW3 WT cells, anti-mFc 647 (Bkrd gMFI = 3300)
# [12] = target: T4, human CD4 on cells (SKW3 cells; human …); test: FACS confirmation, supernatant on human PBMCs, anti-mFc 647, percent of viable cells
# [13] = target: T4, human CD4 on cells (SKW3 cells; human …); test: FACS confirmation, supernatant on SKW3 WT cells, anti-hu Kappa FITC (Bkrd gMFI = 2500)
# [14] = target: T4, human CD4 on cells (SKW3 cells; human …); test: FACS primary screen, non-clonal hybridoma supernatant; SKW3 WT vs SKW3 CD4 KO cells, anti-mFc-647
# [15] = target: T4, human CD4 on cells (SKW3 cells; human …); test: FACS primary screen, non-clonal hybridoma supernatant; SKW3 WT vs SKW3 CD4 KO cells, anti-hKappa-FITC
Binder,Response [1],Kd [2] [nM],koff [2] [s⁻¹],kon [2] [M⁻¹ s⁻¹],"PBMCs CD4+ gate RL1 binding, anti-mFc 647 [3]","gMFI on SKW3 WT, anti-hu Kappa FITC [4] [gMFI]","gMFI on SKW3 WT, anti-mFc 647 [5] [gMFI]","SKW3 WT vs KO ratio, anti-hKappa-FITC [6]","SKW3 WT vs KO ratio, anti-mFc-647 [6]",OKT4a signal (anti-hu A647) with supernatant [7],OKT4-A488 signal with supernatant [8],RPA-T4-PE-Dazzle 594 signal with supernatant [9],Ibalizumab ELISA binning signal (huCD4-HIS),CD4+ gate RL1 Binding [10],gMFI [11] [gMFI],gMFI [13] [gMFI],SKW3 WT vs KO anti-mFc-647 [14] [fold],SKW3 WT vs KO anti-hKappa-FITC [15] [fold],PBMCs CD4+ percent bound of viable [3] [%],CD4+ Percent Bound of Viable [12] [%]
"75110_02I16A (antibody, V domains shown, Tested as non-clonal AlivaMab Mouse hybridoma supernatant (human variable regions and human kappa, mouse Fc); also called ADS75110 non-clonal supernatant 02I16A) VH: QVQLQQWGAGLLKPSETLSLTCDVYGGSFSGYYWTWIRQPPGKGLEWIGEINHSGTTNSNPSLKSRVTISVDTSKSQFSLRLSSVTAADTAVYFCTRELNWFDPWGQGTLVTVSS VL: DIQMTQSPSSVSASVGDRVTITCRASQDIANWLAWYQQKPGKAPQLLIYAASSLLGGVPSRFSGSGSGADFTLTISSLHPEDFATYYCQQANSFPYTFGQGTKLEIK",0.0373,3.9,0.0012,308000,–,–,–,–,–,–,–,–,–,–,–,–,–,–,–,–
"75110_05G15A (antibody, V domains shown) VH: QVQLQESGPGLVKPSQTLSLTCTVSGGSISSGGYFWSWIRQHPGKGLEWIGCIYYSGSTYYIPSLKSRVTISVDTSKNQFSLKLRSVTAADTAVYYCARDGYDYWYFDLWGRGTLVTVSS VL: not shown",–,–,–,–,147000,6000,28600,1.5,2.8,42300,8080,15800,1.7e+06,–,–,–,–,–,32,–
"75110_06C16A (antibody, V domains shown, Tested as non-clonal AlivaMab Mouse Kappa hybridoma supernatant (detected with anti-mouse Fc gamma and anti-human kappa)) VH: QVQLQESGPGLVTPSETLSLSCTVSGGSISDYYWSWIRQPGGKGLEWIGRIYSSGSTNYNPSLKSRVTMSVDTSKNQFSLKLSSVTAADTAVYFCARDREDYYYYGMDVWGQGTTVTVSS VL: DIQMTQSPSSLSASVGDRVTITCQASHDISNYLNWYQQKPGKAPKLLIYAASNLETGVPSRFSGSGSGTDFSFTISSLQPEDIATYYCQQYDHLPLTFGGGTKVEIK",–,–,–,–,297000,4660,12100,1.9,5,36800,8240,15600,1.35e+06,–,–,–,–,–,28,–
"75110_06G04A (antibody, V domains shown, Tested as non-clonal AlivaMab Mouse Kappa hybridoma supernatant (detected with anti-mouse Fc gamma and anti-human kappa)) VH: QVQLLESGPGLVKPSETLSLTCTVSGGSISSYYWSWIRQPAGKGLEWIGRIYISGSTNYNPSLKSRVTMSIDTSENQFSLNLSSVTAADTAVYYCARELERPYYYGMDVWGQGTTVTVSS VL: DIQMTQSPSSLSASVGDRVTITCQASQDISNYLNWYQQKPGKAPKLLIYNASTLETGVPSRFSGSGSGTDFTFTISSLQPEDIATYYCQQYDNLPLTFGGGTKVEFK",–,–,–,–,240000,8480,33700,3.3,9.3,30800,9310,16600,1.96e+06,–,–,–,–,–,30,–
"75110_06K03A (antibody, V domains shown, Tested as non-clonal AlivaMab Mouse Kappa hybridoma supernatant (detected with anti-mouse Fc gamma and anti-human kappa)) VH: QVQLQESGPGLVKPSETLSLTCTVSGGSISTYYWSWIRQPAGKGLEWIGRINTSGSTTYNPSLKSRVTMSVDTSKNQFSLKLSSVTAADTAVYYCARELERYYYYGMDVWGQGTTVTVSS VL: DIQMTQSPSSLSASVGDRVTITCQASQDISNYLNWYQQKPGKAPKLLIYYASILETGVPSRFSGSGSGTDFTFTISSLQPEDIATYYCQQYDSLPLTFGGGTKVEIK",–,–,–,–,296000,8640,33600,2.7,7.5,33200,9140,15800,1.65e+06,–,–,–,–,–,32,–
"75110_03I08A (antibody, V domains shown, Tested as non-clonal hybridoma supernatant (AlivaMab Mouse Kappa), detected with anti-mouse Fc and anti-human kappa) VH: QVQLQESGPGLVKPSETLSLTCTVSGGSISSYYWSWIRQPPGKGLEWIGYIYYSGSTNYNPSLKSRVTISVDTSKNQFSLKLSSVTAADTAVYYCAREGEQWFYGLDVWGQGTTVTVSS VL: EIVLTQSPGTLSLSPGERATLSCRASQSVSSTYLAWYQQKPGQAPRLLIYGSSSRATGIPDRFSGSGSGTDFTLTISRLEPEDFAVYYCQQYGNSFPITFGQGTRLEIK",–,–,–,–,–,–,–,–,–,–,–,–,–,338000,28000,6120,7.6,2.2,–,32
"75110_01H18A (antibody, V domains shown, Tested as non-clonal AlivaMab Mouse hybridoma supernatant (human variable regions and human kappa, mouse Fc); also called ADS75110 non-clonal supernatant 01H18A) VH: QVQLQQWGAGLLKPSETLSLTCAVYGGSFSGYYWSWIRQSPGKGLEWIGEINQSGSTNYNPSLKSRVTISVDTSKNQFSLKLSSVTAADTAVYYCARVINWFDSWGQGTLVTVSS VL: DIQMTQSPSSVSASVGDRVTITCRASQGISSWLAWYQQKPGKAPKLLIYAASSFQSGVPSRFSGSGSGTDFTLTISSLQTEDFATYYCQQANSFPYTFGQGTRLEIK",0.0657,0.902,0.000148,165000,–,–,–,–,–,–,–,–,–,–,–,–,–,–,–,–

# Now from value to binder, other results behind:
Response [1],Kd [2] [nM],koff [2] [s⁻¹],kon [2] [M⁻¹ s⁻¹],"PBMCs CD4+ gate RL1 binding, anti-mFc 647 [3]","gMFI on SKW3 WT, anti-hu Kappa FITC [4] [gMFI]","gMFI on SKW3 WT, anti-mFc 647 [5] [gMFI]","SKW3 WT vs KO ratio, anti-hKappa-FITC [6]","SKW3 WT vs KO ratio, anti-mFc-647 [6]",OKT4a signal (anti-hu A647) with supernatant [7],OKT4-A488 signal with supernatant [8],RPA-T4-PE-Dazzle 594 signal with supernatant [9],Ibalizumab ELISA binning signal (huCD4-HIS),CD4+ gate RL1 Binding [10],gMFI [11] [gMFI],gMFI [13] [gMFI],SKW3 WT vs KO anti-mFc-647 [14] [fold],SKW3 WT vs KO anti-hKappa-FITC [15] [fold],Binder,PBMCs CD4+ percent bound of viable [3] [%],CD4+ Percent Bound of Viable [12] [%]
0.0687,2.66,0.000362,136000,–,–,–,–,–,–,–,–,–,–,–,–,–,–,"75110_10K21A (antibody, V domains shown, Tested as non-clonal AlivaMab Mouse hybridoma supernatant (human variable regions and human kappa, mouse Fc); also called ADS75110 non-clonal supernatant 10K21A) VH: EVQLVESGGGLVQPGGSLRLSCAASGFTFSSYWMTWVRQAPGKGLEWVANIKQDGSEKYYVDSVKGRFTISRDNAKNSLYLQMNSLRAEDTAVYYCVRDRYDALDIWGQGTMVTVSS VL: AIQMTQSPSSLSASVGDRVTITCRASQGIRNDLNWYQQKPGKAPKLLIYAASSLQSGVPSRFSGSGSGTDFTLTISSLQAEDFATYYCLKDYNYPYTFGQGTKLEIK",–,–
–,–,–,–,89200,3980,13400,1.3,2.3,38000,8050,15900,1.98e+06,–,–,–,–,–,"75110_07J02A (antibody, V domains shown, Tested as non-clonal AlivaMab Mouse Kappa hybridoma supernatant (detected with anti-mouse Fc gamma and anti-human kappa)) VH: EVQLVESGGGLVQPGGSLRLSCAASGFTFSSYWMSWVRQAPGKGLEWVANIKEDGSEKYYVDSVKGRFTISRDNAKNSLYLQMNSLRAEDTAVYYCARDGSYSGYGMDVWGQGTTVTVSS VL: AIQMTQSPSSLSASVGDRVTITCRASQGIRNDLGWYQQKPGKAPKLLIYAASSLQSGVPSRFSGRGSGTDFALTISSLQPEDFATYYCLLDYNYPYTFGQGTRLEIK",27,–
0.14,< 0.001,< 1e-07,100000,–,–,–,–,–,–,–,–,–,–,–,–,–,–,"75110_14H13A (antibody, V domains shown, Tested as non-clonal AlivaMab Mouse hybridoma supernatant (human variable regions and human kappa, mouse Fc); also called ADS75110 non-clonal supernatant 14H13A) VH: EVQLVESGGGLVQPGGSLRLSCAASGFTFSNYDMHWVRQATGKGLEWVSTIGTAGDTYYPGSVKGRFTISRKNAKNSLYLQMISLRAGDTAVYYCARGGDYYYGMDVWGQGTTVTVSS VL: not shown",–,–
–,–,–,–,278000,3570,20100,1.1,4.1,42500,7930,14600,887000,–,–,–,–,–,"75110_08D24A (antibody, V domains shown, Tested as non-clonal AlivaMab Mouse Kappa hybridoma supernatant (detected with anti-mouse Fc gamma and anti-human kappa)) VH: QVQLQESGPGLVKPSETLSLTCTVSGGSISGFYWSWIRQPAGKGLEWIGRIYTSENTNYNPSLKSRVTMSVDTSKNQFSLKLSSVTAADTAVYYCARDREGYYYYGMDVWGQGTTVTVSS VL: DIQMTQSPSSLSASVGDRVTITCQASQDISNYLNWYQQKPGKAPKLLIYAASNLETGVPSRFSGSGSGTDFTFTISSLQPEDIATYYCQQYDSLPITFGQGTRLEIK",30,–
